Assay results published in patent US20230183291A1 (Bicycle, published 2023).
Numbered stars: 1 amine (or outer) side, 2 acyl side, 3 side chain; on linkers, the order of the positions; unused ones are H or OH. Bridge positions count the residues as written; N and C are the ends. Square brackets hold non-standard residues; d marks the D form. Ends that are not written are not given here. TATA = O=C(CC[*:1])N1CN(C(=O)CC[*:2])CN(C(=O)CC[*:3])C1; Phe(4-Cl) = N[C@@H](Cc1ccc(Cl)cc1)C(=O)O; Hyp = O=C(O)[C@@H]1C[C@@H](O)CN1; hArg = N=C(N)NCCCC[C@H](N)C(=O)O; PYA = propargyl-acid

Legend:
[1] = biological target: T1, Biotinylated Human ACE2, His, Avitag protein (ACROBiosystems, AC2-H82E6) (human, UniProt Q9BYF1 18-740); test: SPR single cycle kinetics, biotinylated ACE2 captured on CAP chip, peptide as analyte
T1 construct: also called biotinylated ACE2; ACE2 protein; not shown: His tag and Avitag
T1 sequence (Q9BYF1 18-740 limits assumed): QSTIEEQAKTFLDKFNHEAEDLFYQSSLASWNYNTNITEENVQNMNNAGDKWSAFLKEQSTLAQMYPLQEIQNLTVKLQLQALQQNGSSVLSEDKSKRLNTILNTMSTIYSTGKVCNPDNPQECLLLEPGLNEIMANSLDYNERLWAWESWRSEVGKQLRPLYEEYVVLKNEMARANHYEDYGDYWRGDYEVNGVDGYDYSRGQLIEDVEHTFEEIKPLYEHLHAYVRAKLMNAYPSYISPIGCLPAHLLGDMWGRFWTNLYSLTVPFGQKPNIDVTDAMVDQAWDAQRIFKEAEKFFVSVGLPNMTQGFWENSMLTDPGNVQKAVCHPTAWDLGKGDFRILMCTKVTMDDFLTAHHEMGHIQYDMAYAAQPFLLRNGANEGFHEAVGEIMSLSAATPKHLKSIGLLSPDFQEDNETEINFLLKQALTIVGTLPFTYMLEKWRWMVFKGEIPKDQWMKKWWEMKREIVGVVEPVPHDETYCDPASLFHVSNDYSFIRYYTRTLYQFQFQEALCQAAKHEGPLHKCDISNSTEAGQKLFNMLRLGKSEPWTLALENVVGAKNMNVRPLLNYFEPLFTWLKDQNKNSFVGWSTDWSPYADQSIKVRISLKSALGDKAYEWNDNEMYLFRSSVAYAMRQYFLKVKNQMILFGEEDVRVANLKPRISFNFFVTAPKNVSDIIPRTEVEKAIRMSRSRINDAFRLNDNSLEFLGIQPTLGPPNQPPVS
Experimental: (§1) Binding of bicyclic peptides of the invention to Biotinylated Human ACE2, His, Avitag™ protein (ACROBiosystems, AC2-H82E6) was assessed by a SCK analysis. Experiments were performed at 25° C. on a Biacore T200 (Cytiva) running Biacore T200 Control software V2.0.1 and Evaluation software V3.0 (Cytiva). HBS-EP+ (Cytiva) was used as running buffer as well as for ligand and analyte dilutions. Biotin CAPture reagent was loaded onto a Series S Sensor CAP Chip (Cytiva) followed by loading of the ACE2 protein at a flow rate of 2 μl/min. The surface was then allowed to stabilise.
(§2) SCK data was obtained using bicyclic peptides of the invention as analytes injected at a flow rate of 30 μl/min to minimise any potential mass transfer effects. […] The association phases were monitored for 100 seconds for each of the four injections of increasing concentrations of analyte and a single dissociation phase was measured for 400 seconds following the last injection of analyte. Regeneration of the sensor chip surface was conducted using the CAP Chip standard regeneration buffer (Cytiva).
(§3) The signal from the reference channel Fc1 (no ACE2 captured) was subtracted from that of Fc2, Fc3 and Fc4 to correct for bulk effect and differences in non-specific binding to a reference surface. The signal from each blank run (Fc2-ACE2 captured but no antigen) was subtracted to correct for differences in surface stability. […]

[2] = biological target: T1, Biotinylated Human ACE2, His, Avitag …; test: SPR single cycle kinetics, ACE2 captured on CAP chip, peptide analyte; geometric mean; † high bulk contribution observed, treat with caution
Experimental: as §1, §2, §3

[3] = biological target: T1, Biotinylated Human ACE2, His, Avitag …; test: SPR multiple cycle kinetics, ACE2 captured on CAP chip, peptide analyte 6.25-100 nM; geometric mean
Experimental: (§4) Binding of bicyclic peptides of the invention to Biotinylated Human ACE2, His, Avitag™ protein (ACROBiosystems, AC2-H82E6) was assessed by a MCK analysis. Experiments were performed at 25° C. on a Biacore T200 (Cytiva) running Biacore T200 Control software V2.0.1 and Evaluation software V3.0 (Cytiva). HBS-EP+(Cytiva) was used as running buffer as well as for ligand and analyte dilutions. Biotin CAPture reagent was loaded onto a Series S Sensor CAP Chip (Cytiva) followed by loading of biotinylated ACE2 at a flow rate of 2 μl/min. The surface was then allowed to stabilise.
MCK data was obtained using bicyclic peptides of the invention as analytes injected at a flow rate of 30 μl/min to minimise any potential mass transfer effects. A five point, two-fold dilution range from 6.25 nM to 100 nM of analyte was prepared in running buffer. For each concentration, the association phases were monitored for 250 seconds and the dissociation phase was measured for 450 seconds. Regeneration of the sensor chip surface was conducted between cycles using the CAP Chip standard regeneration buffer (Cytiva). Multiple repeats of a blank and of Bicycle were programmed into the kinetic run in order to check the stability of both the surface and analyte over the kinetic cycles.
(§5) The signal from the reference channel Fc1 (no ACE2 captured) was subtracted from that of Fc2, Fc3 and Fc4 to correct for bulk effect and differences in non-specific binding to a reference surface. The signal from each blank run (Fc2-ACE2 captured but no antigen) was subtracted to correct for differences in surface stability. The double referenced sensorgrams were fitted with the Langmuir (1:1) binding model (Equation 1a above) where the closeness of fit of the data to the model is evaluated using the Chi square value which describes the deviation between the experimental and fitted (observed and expected) curves (Equation 1 b above).

[4] = biological target: T1, Biotinylated Human ACE2, His, Avitag …; test: SPR single cycle kinetics, ACE2 captured on CAP chip, peptide analyte; geometric mean; * Rmax set to 10
Experimental: as §1, §2
as §5, with “below)” for “above)”, “1b below).” for “1 b above).”

[5] = biological target: T1, Biotinylated Human ACE2, His, Avitag …; test: SPR multiple cycle kinetics, biotinylated ACE2 captured on CAP chip, peptide as analyte
Experimental: as §4
MCK data was obtained using bicyclic peptides of the invention as analytes injected at a flow rate of 30 μl/min to minimise any potential mass transfer effects. […] For each concentration, the association phases were monitored for 250 seconds and the dissociation phase was measured for 450 seconds. […]
as §5, with “The signal from each blank run (Fc2-ACE2 captured but no antigen) was subtracted to correct for differences in surface stability.” left out

Ac-CNDVLCSWA[hArg]ANSFC (linker 1-6-15 via TATA, bicyclic peptide, TATA scaffold) [BCY18659]: no binding [1].

Ac-CNEVLCSWA[hArg]ANSFC (linker 1-6-15 via TATA, bicyclic peptide, TATA scaffold) [BCY18783]: no binding [1].

In the case of ACNAVLCSWARANS[Phe(4-Cl)]CA (linker 2-7-16 via TATA, bicyclic peptide, TATA scaffold) [BCY17340], the Kd [2] is reported as 16.9 nM.

Binder Ac-CNTVLCGWA[hArg]ANSLCK(PYA) (linker 1-6-15 via TATA, bicyclic peptide, TATA scaffold) [BCY18551] has a Kd [3] of 19.5 nM and a Kd [4] of 15.4 nM.

Binder ACNAVLCSWARANSFCAK(PYA) (linker 2-7-16 via TATA, bicyclic peptide, TATA scaffold) [BCY17344] has a Kd [2] of 3.2 nM.

Ac-CNAVLCSWA[hArg][Hyp]NSFC (linker 1-6-15 via TATA, bicyclic peptide, TATA scaffold) [BCY19024]: no binding [5].
